Reference: the Human Domainome abundance scans (Beltran et al. 2025)
± gives the uncertainty stated by the source.

B1: POU domain, class 3, transcription factor 1, residues 247 to 324; numbered along this chain, Q03052 (parent)
chain: EDAPSSDDLEQFAKQFKQRRIKLGFTQADVGLALGTLYGNVFSQTTICRFEALQLSFKNMCKLKPLLNKWLEETDSSS

Variants of: B1
Assay: abundance fitness (aPCA) (normalised: wild type 0, dead -1); higher = more abundant; growth selection in yeast, the domain comes from the species named
Settings: Homo sapiens

Variant	abundance fitness
K69H	-0.254 ± 0.12
T74F	0.453 ± 0.28
Q54K	-0.098 ± 0.079
D7R	-0.085 ± 0.058
A28P	-0.758 ± 0.21
F16L	-0.633 ± 0.14
L67H	-0.04 ± 0.2
F12S	-0.544 ± 0.14
Q54P	-0.62 ± 0.15
V30G	-0.957 ± 0.14
E1I	0.3 ± 0.14
F50D	-0.993 ± 0.23
A52R	-0.001 ± 0.051
F25Y	0.112 ± 0.14
A13C	0.113 ± 0.086
K58R	-0.142 ± 0.049
A3T	0.238 ± 0.053
E10Q	-0.144 ± 0.15
L63S	-0.791 ± 0.13
M60Q	-1.05 ± 0.25
K58E	0.031 ± 0.057
P4R	-0.229 ± 0.056
D8S	-0.415 ± 0.099
I47S	-0.736 ± 0.14

Variant	abundance fitness
F57P	-0.014 ± 0.084
R20S	-0.813 ± 0.17
L9S	-0.833 ± 0.16
A3E	-0.049 ± 0.08
G35Q	-0.125 ± 0.1
D29R	-0.316 ± 0.065
L63M	-0.11 ± 0.093
K62M	-0.075 ± 0.081
D2F	0.166 ± 0.1
E72R	-0.079 ± 0.04
S56E	-0.31 ± 0.072
L63G	-0.643 ± 0.069
T26L	-0.699 ± 0.16
L55S	-0.323 ± 0.1
I21Q	-0.178 ± 0.095
Q11H	0.121 ± 0.17
C61D	-0.96 ± 0.25
K69Y	-0.159 ± 0.14
K17E	-0.8 ± 0.2
F42H	-0.226 ± 0.13
E73L	-0.018 ± 0.047
T36C	-0.18 ± 0.11
R19M	0.023 ± 0.1
S43A	-0.378 ± 0.07

Variant	abundance fitness
F57Q	0.015 ± 0.11
D7T	-0.073 ± 0.11
G31A	0.161 ± 0.062
N68K	0.007 ± 0.078
D7M	-0.153 ± 0.1
F25I	-0.404 ± 0.2
W70A	-0.689 ± 0.1
L34A	-0.42 ± 0.12
N68W	-0.118 ± 0.053
L23V	-0.686 ± 0.11
V41Y	-0.079 ± 0.17
L53Q	-0.009 ± 0.11
S77H	0.054 ± 0.082
E73A	-0.038 ± 0.055
V41R	-0.035 ± 0.047
K62P	-0.882 ± 0.21
K69Q	-0.02 ± 0.057
P4L	-0.031 ± 0.061
D8K	-0.397 ± 0.16
L34I	-0.536 ± 0.27
M60Y	0.109 ± 0.28
V41H	0.253 ± 0.1
Q15A	-0.067 ± 0.065
I21W	-0.544 ± 0.12

Variant	abundance fitness
L66R	-0.504 ± 0.061
K22W	-0.537 ± 0.12
G35K	-0.125 ± 0.12
L37E	-0.062 ± 0.06
N59E	0.132 ± 0.063
E51R	-0.501 ± 0.13
Q27W	-0.209 ± 0.11
W70I	-0.707 ± 0.29
S77Y	0.044 ± 0.087
G31N	-0.437 ± 0.25
A52G	-0.156 ± 0.046
F16Q	-0.541 ± 0.19
E72V	-0.1 ± 0.044
L53I	0.064 ± 0.11
P65A	-0.241 ± 0.06
Q11S	-0.002 ± 0.07
K14C	-0.27 ± 0.12
V30N	-0.281 ± 0.28
L23D	-0.301 ± 0.2
L66M	0.162 ± 0.064
K69V	-0.559 ± 0.071
Q18Y	-0.824 ± 0.36
D8Q	-0.25 ± 0.12
F16W	-0.736 ± 0.15

Variant	abundance fitness
K64M	-0.042 ± 0.076
S56T	-0.287 ± 0.077
S5H	0.283 ± 0.1
K17Q	0.035 ± 0.095
L71R	-0.569 ± 0.081
W70E	-0.753 ± 0.11
S5I	-0.234 ± 0.17
E1C	0.281 ± 0.41
A28L	-0.405 ± 0.075
K64G	-0.911 ± 0.11
K64I	-0.814 ± 0.37
T45S	-0.017 ± 0.052
F42T	-0.071 ± 0.077
L55C	-0.064 ± 0.081
N68F	-0.175 ± 0.1
R19T	-0.04 ± 0.081
S6I	0.346 ± 0.13
L37W	-0.251 ± 0.075
Q15C	-0.342 ± 0.16
L34R	-0.844 ± 0.12
K62W	-0.449 ± 0.1
L67M	-0.084 ± 0.077
E72H	-0.018 ± 0.1
Q18T	-0.034 ± 0.083

Variant	abundance fitness
R19S	-0.232 ± 0.085
L66P	-0.644 ± 0.15
D8V	-0.217 ± 0.069
R20F	-0.353 ± 0.3
E73F	-0.105 ± 0.16
Q15W	-0.288 ± 0.12
N40K	0.263 ± 0.066
D8H	-0.276 ± 0.41
L66F	-0.031 ± 0.12
W70K	-0.756 ± 0.21
S56K	-0.309 ± 0.092
L55A	-0.54 ± 0.098
P65K	-0.156 ± 0.12
E10I	-0.456 ± 0.27
S6T	0.38 ± 0.084
S6M	0.473 ± 0.07
I47P	-0.661 ± 0.17
L66D	-0.822 ± 0.24
C48D	0.307 ± 0.11
L37V	-0.198 ± 0.073
K17S	-0.354 ± 0.1
N68G	-0.049 ± 0.046
K69W	-0.671 ± 0.12
Q27F	-0.325 ± 0.37

Variant	abundance fitness
K64Y	-0.564 ± 0.33
K69T	-0.251 ± 0.074
P65F	-0.175 ± 0.14
E10W	-0.107 ± 0.089
F25W	-0.536 ± 0.14
L23G	-0.56 ± 0.12
F42E	-0.114 ± 0.067
K64Q	-0.009 ± 0.075
L34T	-0.311 ± 0.18
S5K	0.07 ± 0.074
V41M	0.03 ± 0.084
M60T	-0.396 ± 0.12
N68Q	0.011 ± 0.076
K58G	-0.074 ± 0.046
L37K	0.137 ± 0.072
K17W	-0.879 ± 0.24
K62Y	0.035 ± 0.17
K17P	-0.667 ± 0.25
R20W	-0.973 ± 0.24
S6W	0.405 ± 0.063
F42P	-0.265 ± 0.1
S5P	0.067 ± 0.097
F57I	-0.273 ± 0.16
T36Q	0.032 ± 0.075

Variant	abundance fitness
Q15R	-0.047 ± 0.053
I21G	-0.689 ± 0.085
K64H	-0.126 ± 0.15
Q18R	-0.204 ± 0.064
D29S	-0.28 ± 0.087
E10M	-0.037 ± 0.08
E1S	0.126 ± 0.1
D75M	-0.4 ± 0.18
F25D	-0.811 ± 0.45
T26G	-0.456 ± 0.083
S76C	-0.341 ± 0.21
G39L	-0.751 ± 0.12
T45E	0.185 ± 0.054
E72F	-0.493 ± 0.14
F42G	-0.594 ± 0.073
Q18F	-0.304 ± 0.48
S5A	0.048 ± 0.062
Q18L	-0.25 ± 0.074
T45N	0.112 ± 0.093
G39C	-0.523 ± 0.15
S43R	-0.329 ± 0.055
L67I	-0.321 ± 0.16
C61I	-0.134 ± 0.1
D7F	-0.616 ± 0.22

Variant	abundance fitness
Y38W	-0.43 ± 0.087
Q11W	-0.707 ± 0.1
T45W	-0.443 ± 0.075
I47H	-0.944 ± 0.38
K17H	-0.066 ± 0.18
V30R	-0.975 ± 0.14
V41E	0.058 ± 0.051
N59F	-0.62 ± 0.22
L32Q	0.148 ± 0.061
I21C	-0.521 ± 0.16
F42V	0.064 ± 0.045
E51H	-0.98 ± 0.29
T46D	0.118 ± 0.091
G39T	-0.196 ± 0.12
Q18M	-0.472 ± 0.15
E10S	-0.433 ± 0.1
A3F	0.281 ± 0.12
Q54V	-0.497 ± 0.1
L63Y	-0.368 ± 0.14
L32H	0.033 ± 0.12
K58V	-0.272 ± 0.073
V30M	-0.65 ± 0.21
K64S	-0.405 ± 0.089
F12R	-0.62 ± 0.12

Variant	abundance fitness
L71M	0.03 ± 0.082
N40M	-0.126 ± 0.065
L67R	-0.716 ± 0.075
G31E	-0.18 ± 0.095
I47C	-0.294 ± 0.22
Q11F	-0.093 ± 0.17
Q15G	-0.18 ± 0.056
S77I	-0.113 ± 0.12
G24V	-1.01 ± 0.17
E10C	-0.118 ± 0.098
I21F	-0.827 ± 0.41
T26M	-0.559 ± 0.2
G31D	-0.417 ± 0.19
T74S	-0.141 ± 0.1
P65G	-0.167 ± 0.043
T46R	-0.509 ± 0.079
C61A	-0.001 ± 0.049
A3S	0.238 ± 0.057
W70S	-0.348 ± 0.07
A52S	0.036 ± 0.059
Q54L	-0.376 ± 0.085
A28I	-0.608 ± 0.46
S43G	-0.297 ± 0.049
D75W	-0.262 ± 0.11

Variant	abundance fitness
V30H	-0.303 ± 0.26
L55K	-0.535 ± 0.16
A13G	-0.828 ± 0.14
M60K	-0.09 ± 0.21
K14Y	-0.233 ± 0.13
E51A	-0.65 ± 0.13
K58C	-0.53 ± 0.33
C61Q	0.017 ± 0.07
E10D	-0.136 ± 0.12
F57H	0.031 ± 0.13
T26E	-0.298 ± 0.12
L23F	-0.219 ± 0.15
F57V	-0.144 ± 0.057
E10N	-0.024 ± 0.13
M60G	-0.673 ± 0.084
N40L	-0.237 ± 0.052
L23S	-0.59 ± 0.13
D8N	-0.294 ± 0.2
V41N	0.116 ± 0.18
A13F	-0.972 ± 0.41
F50R	-0.785 ± 0.078
A52D	0.041 ± 0.1
A52V	-1.02 ± 0.16
Y38C	-0.029 ± 0.085

Variant	abundance fitness
L63C	-0.736 ± 0.17
Q11D	0.07 ± 0.095
S5Y	-0.062 ± 0.15
L34C	-0.397 ± 0.18
K14R	-0.195 ± 0.064
N40D	0.062 ± 0.073
F16N	-0.713 ± 0.37
R19P	-0.79 ± 0.2
V41I	0.025 ± 0.11
D75E	0.109 ± 0.078
S43T	-0.04 ± 0.062
F50K	-0.903 ± 0.28
T46N	-0.373 ± 0.19
V30I	-0.055 ± 0.13
F57L	0.003 ± 0.062
K58I	-0.045 ± 0.28
D2S	0.453 ± 0.08
D8G	-0.095 ± 0.061
L32W	-0.185 ± 0.081
R20G	-0.896 ± 0.13
L63N	-0.117 ± 0.32
T26W	-0.998 ± 0.27
F12V	-0.55 ± 0.14
N59T	-0.128 ± 0.087

Variant	abundance fitness
R20H	-0.508 ± 0.32
D29M	-0.654 ± 0.17
F25C	-0.217 ± 0.13
N40E	0.031 ± 0.053
D7A	-0.142 ± 0.081
A13M	-0.383 ± 0.17
S6Y	0.043 ± 0.45
D75C	0.089 ± 0.13
Q11Y	-0.269 ± 0.14
D8A	-0.183 ± 0.079
T46C	-0.64 ± 0.22
C48K	-0.011 ± 0.085
Q11I	0.134 ± 0.21
S76M	0.012 ± 0.091
C48E	0.174 ± 0.058
S56D	0.031 ± 0.088
E10A	-0.178 ± 0.072
L66K	-0.299 ± 0.094
D2T	0.459 ± 0.086
T45D	0.254 ± 0.068
N68A	0.029 ± 0.051
N59R	-0.017 ± 0.045
L55N	-0.2 ± 0.17
D7Y	0.101 ± 0.12

Variant	abundance fitness
T46M	0.069 ± 0.095
V41C	-0.142 ± 0.089
S78G	0.153 ± 0.073
K22H	0.068 ± 0.24
A33V	-0.255 ± 0.08
K22I	-0.743 ± 0.42
Y38E	-0.332 ± 0.084
E72I	-0.245 ± 0.13
D75R	-0.077 ± 0.061
T45V	-0.148 ± 0.052
A3Q	0.327 ± 0.08
V41F	-0.427 ± 0.24
M60A	-0.244 ± 0.064
E51N	-0.461 ± 0.13
A33F	-0.105 ± 0.12
A52K	0.163 ± 0.075
D75Q	0.165 ± 0.12
N59L	-0.074 ± 0.056
D8C	-0.358 ± 0.17
L23M	0.124 ± 0.072
L71F	-0.82 ± 0.25
L23T	-0.647 ± 0.17
